According to patent publication US20210338838A1:

Assays:
[1] = molecular target: C3b (complement component 3b) (UniProt P01024); assay: cell-based or functional assay
[2] = molecular target: C3b (complement component 3b) (UniProt P01024); assay: plate-based binding assay, His-tagged recombinant protein from HEK293 cells
[3] = molecular target: C3b (complement component 3b) (UniProt P01024); assay: rank of binding affinity among six proteins, plate-based binding assays
[4] = molecular target: C3b (complement component 3b) (UniProt P01024); assay: relative C3b-binding assay, detection antibody AbCam OX-24 (#Ab112197)
[5] = molecular target: C3b (complement component 3b) (UniProt P01024); assay: relative C3b-binding assay, percent of CFH-Risk, detection antibody AbCam OX-24 (#Ab112197)

Sequence of protective CFHT-I62-Y402 (truncated complement factor H ending in SFTL) (P08603 other isoform, or with tags, fused parts or gaps): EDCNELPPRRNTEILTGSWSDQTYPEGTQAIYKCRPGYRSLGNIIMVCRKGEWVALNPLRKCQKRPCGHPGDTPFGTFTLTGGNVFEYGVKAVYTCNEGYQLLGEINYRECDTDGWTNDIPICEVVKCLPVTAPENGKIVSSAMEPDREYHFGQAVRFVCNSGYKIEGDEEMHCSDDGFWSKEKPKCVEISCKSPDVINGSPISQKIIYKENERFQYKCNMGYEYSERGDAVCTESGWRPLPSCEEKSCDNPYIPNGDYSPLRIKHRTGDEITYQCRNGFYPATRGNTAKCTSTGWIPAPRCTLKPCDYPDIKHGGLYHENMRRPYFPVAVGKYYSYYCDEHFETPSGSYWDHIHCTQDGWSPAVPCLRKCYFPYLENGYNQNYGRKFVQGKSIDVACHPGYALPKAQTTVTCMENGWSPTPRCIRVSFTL
Sequence of protective CFH-I62-Y402-E936 (full-length complement factor H) (P08603 19-1231 V62I): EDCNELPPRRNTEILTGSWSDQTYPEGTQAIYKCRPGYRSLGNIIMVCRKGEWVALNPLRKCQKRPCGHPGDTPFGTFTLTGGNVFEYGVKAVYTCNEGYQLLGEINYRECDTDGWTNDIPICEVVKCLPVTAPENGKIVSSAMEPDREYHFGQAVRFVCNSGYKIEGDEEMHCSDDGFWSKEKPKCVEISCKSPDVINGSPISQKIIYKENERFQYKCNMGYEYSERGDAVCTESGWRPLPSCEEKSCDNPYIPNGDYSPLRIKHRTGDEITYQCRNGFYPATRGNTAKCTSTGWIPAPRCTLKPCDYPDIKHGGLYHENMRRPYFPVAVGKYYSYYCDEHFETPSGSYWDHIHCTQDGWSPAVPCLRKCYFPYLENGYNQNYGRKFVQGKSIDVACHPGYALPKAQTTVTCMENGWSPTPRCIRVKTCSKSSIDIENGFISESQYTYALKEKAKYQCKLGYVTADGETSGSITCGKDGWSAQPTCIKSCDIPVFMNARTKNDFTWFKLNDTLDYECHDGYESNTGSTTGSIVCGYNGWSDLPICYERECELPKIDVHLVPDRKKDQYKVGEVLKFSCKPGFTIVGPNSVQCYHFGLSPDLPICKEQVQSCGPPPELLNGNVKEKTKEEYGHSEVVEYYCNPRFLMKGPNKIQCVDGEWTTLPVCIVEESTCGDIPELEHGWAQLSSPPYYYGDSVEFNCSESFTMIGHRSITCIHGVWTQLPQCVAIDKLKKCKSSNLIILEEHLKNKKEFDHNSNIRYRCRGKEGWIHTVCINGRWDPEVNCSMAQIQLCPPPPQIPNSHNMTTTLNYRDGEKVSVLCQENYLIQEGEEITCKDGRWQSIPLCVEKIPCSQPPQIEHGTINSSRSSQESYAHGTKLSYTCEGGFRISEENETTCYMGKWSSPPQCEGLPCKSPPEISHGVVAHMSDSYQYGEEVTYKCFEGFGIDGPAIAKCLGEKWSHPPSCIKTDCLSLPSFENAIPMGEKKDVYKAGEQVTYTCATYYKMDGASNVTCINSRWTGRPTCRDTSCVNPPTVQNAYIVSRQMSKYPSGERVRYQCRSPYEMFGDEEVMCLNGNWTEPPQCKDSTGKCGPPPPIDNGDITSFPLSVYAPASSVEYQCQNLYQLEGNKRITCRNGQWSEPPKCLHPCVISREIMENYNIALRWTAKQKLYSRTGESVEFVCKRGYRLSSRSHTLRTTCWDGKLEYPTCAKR
Sequence of CFHT-Neu/Del (truncated CFH of the neutral and deletion haplotypes, V62-Y402) (P08603 other isoform, or with tags, fused parts or gaps): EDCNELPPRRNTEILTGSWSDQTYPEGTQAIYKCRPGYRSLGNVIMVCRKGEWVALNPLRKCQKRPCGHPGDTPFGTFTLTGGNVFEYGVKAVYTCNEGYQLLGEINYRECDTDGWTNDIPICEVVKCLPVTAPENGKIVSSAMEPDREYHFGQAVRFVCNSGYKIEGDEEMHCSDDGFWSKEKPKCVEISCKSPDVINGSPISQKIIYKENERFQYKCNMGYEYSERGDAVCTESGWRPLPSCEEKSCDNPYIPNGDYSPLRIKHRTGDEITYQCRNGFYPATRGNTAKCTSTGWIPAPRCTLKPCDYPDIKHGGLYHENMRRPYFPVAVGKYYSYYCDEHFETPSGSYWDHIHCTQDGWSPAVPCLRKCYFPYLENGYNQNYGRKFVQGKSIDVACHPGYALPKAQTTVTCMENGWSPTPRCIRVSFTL
Sequence of CFH-Del (CFH of the CFHR3/1 deletion haplotype, V62-Y402-E936) (P08603 19-1231, stated change not applied): as the sequence (P08603 19-1231 V62I) above, with I44V counted along it

Cofactor (IC50 value for iC3b 43-kDa band appearance) [1] [nM] | Kd [2] [nM] | Binding Affinity Rank (1 best to 6 worst) [3] [rank] | Binding Potential [4] | % FH-Risk [5] [%] | Substance
37 | 478 | 3 | – | – | eCFHT-SK (engineered truncated CFH, I62-Y402, ending in SKSFTL) (from UniProt P08603 19-445)
– | – | – | 3 | 15 | CFHT-Neu/Del (truncated CFH of the neutral and deletion haplotypes, V62-Y402) (from UniProt P08603 19-445)
89.7 | 938 | 6 | – | – | eCFHT-SE (engineered truncated CFH, I62-Y402, ending in SESFTL) (from UniProt P08603 19-445)
– | – | 5 | 2 | 10 | CFHT-V62-H402 (risk variant of truncated CFH) (from UniProt P08603 19-445)
– | – | – | 29 | 134 | CFH-Neu (neutral variant of full-length CFH, V62-Y402-D936) (from UniProt P08603 19-1231)
31.2 | 717 | 4 | 4 | 17 | protective CFHT-I62-Y402 (truncated complement factor H ending in SFTL) (from UniProt P08603 19-445)
– | – | – | 24 | 107 | CFH-Del (CFH of the CFHR3/1 deletion haplotype, V62-Y402-E936) (from UniProt P08603 19-1231)
9.2 | 141 | 1 | 29 | 133 | protective CFH-I62-Y402-E936 (full-length complement factor H) (from UniProt P08603 19-1231)
– | – | 2 | 22 | 100 | CFH-V62-H402-E936 (risk variant of full-length CFH) (from UniProt P08603 19-1231)
